Laboratory results reported in patent EP4279506A1 (Persongen Biotherapeutics (Suzhou) Co., Ltd., dated 2023).

Key:
[1] = target: T1, human 4Ig-B7-H3 (h4IgB7H3) expressed on Raji cells (human, UniProt Q5ZPR3 29-534); assay: flow cytometry on h4IgB7H3-Raji cells
T1 construct: whole, on cells; also called h4IgB7H3-Raji
T1 sequence (looked up): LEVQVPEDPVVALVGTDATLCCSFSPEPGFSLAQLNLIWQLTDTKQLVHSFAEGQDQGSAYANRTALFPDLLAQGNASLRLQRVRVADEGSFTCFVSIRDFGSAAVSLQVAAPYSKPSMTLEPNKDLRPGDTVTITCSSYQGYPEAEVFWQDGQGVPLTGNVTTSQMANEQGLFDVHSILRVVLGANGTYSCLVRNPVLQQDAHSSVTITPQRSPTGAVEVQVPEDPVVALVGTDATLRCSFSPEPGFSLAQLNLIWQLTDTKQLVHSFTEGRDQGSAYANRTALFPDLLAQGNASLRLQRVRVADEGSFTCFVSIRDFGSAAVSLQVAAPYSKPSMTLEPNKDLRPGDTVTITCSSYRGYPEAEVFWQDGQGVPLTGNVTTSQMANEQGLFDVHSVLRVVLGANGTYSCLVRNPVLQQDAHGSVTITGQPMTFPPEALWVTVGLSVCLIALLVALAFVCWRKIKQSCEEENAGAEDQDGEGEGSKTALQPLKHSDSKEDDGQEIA

[2] = target: B7-H3-His recombinant protein (UniProt Q5ZPR3); assay: SPR; B7-H3-His on CM5 chip, antibody as mobile phase
[3] = target: T2, murine 2Ig-B7-H3 (m2IgB7H3) expressed on Raji cells (mouse, UniProt Q8VE98 29-316); assay: flow cytometry on m2IgB7H3-Raji cells
T2 construct: whole, on cells; also called m2IgB7H3-Raji; mB7-H3-Raji
T2 sequence (looked up): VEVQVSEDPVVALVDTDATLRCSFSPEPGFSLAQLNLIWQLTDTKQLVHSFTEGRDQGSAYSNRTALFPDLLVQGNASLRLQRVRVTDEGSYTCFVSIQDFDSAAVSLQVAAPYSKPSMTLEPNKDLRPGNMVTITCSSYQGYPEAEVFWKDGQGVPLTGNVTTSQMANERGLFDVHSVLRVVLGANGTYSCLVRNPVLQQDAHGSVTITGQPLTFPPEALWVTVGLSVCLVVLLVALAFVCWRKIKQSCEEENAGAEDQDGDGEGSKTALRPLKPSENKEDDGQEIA

Binder	binding result [1]	Kd [2]	koff [2]	kon [2]	binding result [3]
humanized B7-H3 antibody T1H1-T1L1 (αhB7-H3 antibody) (antibody, V domains shown, They were subcloned into the pcDNA3.1-IgG1Fc (heavy) and pcDNA3.1-IgKc (light) expression vectors; The antibody was detected with anti-human IgG; also called αhB7-H3 Ab; B7-H3 T1H1-T1L1) VH: EVQLVESGGGLIQPGGSLRLSCAASGFTFSTYVMSWVRQAPGKGLEWVSSILSGGTSFYADNVKGRFTISRDNSKNTLYLQMNSLRAEDTAVYYCARRYGHDHYYAMDYWGQGTLVTVSS VL: EIVLTQSPATLSLSPGERATLSCAASSSVSSSYLHWYQQKPGLAPRLLIYSTSNLASGIPDRFSGSGSGTDFTLTISRLEPEDFAVYYCQQYHRSPWTFGGGTKVEIK	binds	114 nM	0.00282 s⁻¹	24800 M⁻¹ s⁻¹	binds
humanized B7-H3 antibody T2H1-T2L1 (βhB7-H3 antibody) (antibody, V domains shown) VH: EVQLVESGGGVVRPGGSLRLSCAASGFTFSTYVMSWVRQAPGKGLEWVSSILSGGTSFYADNVKGRFTISRDNAKNSLYLQMNSLRAEDTALYHCARRYGHDHYYAMDYWGQGTTVTVSS VL: DIQMTQSPSTLSASVGDRVTITCAASSSVSSSYLHWYQQKPGKAPKLLIYSTSNLASGVPSRFSGSGSGTEFTLTISSLQPDDFATYYCQQYHRSPWTFGQGTKLEIK		72.8 nM	0.00289 s⁻¹	39700 M⁻¹ s⁻¹	
mouse anti-human mB7-H3 antibody (antibody, V domains shown) VH: EVTLVESGGGLVKPGGSLKLSCAASGFTFSTYVMSWVRQTPEKRLEWVASILSGGTSFYADNVKGRFTISRENARNILYLQMSSLKSEDTAMYYCVRRYGHDHYYAMDYWGQGTSVTVSS VL: QIVLTQSPANMSASLGERVTMTCAASSSVSSSYLHWYQQKPGSSPKLWIYSTSNLASGVPGRFNGSGSGTSYSLTISSMEAEDAATYYCHQYHRSPWTFGGGTKLEIK		70.8 nM	0.00258 s⁻¹	36400 M⁻¹ s⁻¹	
